Test results: publication PMC9023288, “The Burkholderia cenocepacia iron starvation σ factor, OrbS, possesses an on-board iron sensor” (Nucleic Acids Research, 2022)
Where “and” joins values, the source holds several entries; their conditions need not be identical. Equal entries are not always repeated.

B1: His-tagged Burkholderia cenocepacia OrbS (iron starvation ECF σ factor) (natural protein, UniProt B4E986 1-222, looked up)
chain: MAMAEVLDRPAAAAANPFLGSYPDLPPRAAPRARRASEPRAQGALLDVLISHRAMLVNVARGFVGCASRAEDVVHDVFVKLVEFPNQDAVRQPVAYVTRMVRNASIDACRRQNLENVYHTEEDDGFDVPSPEPTPEAALMTRDTLRRVWAALDDLPARSRAAFEMVRLREETLQTAARALNVSQTLVHFMVRDAERHCAECLDACHRGVACPVFLGGRARRR
notes: also called σ^OrbS; BCAL1688

Assays:
[1] = target: His-tagged OrbS-CtetraA (OrbS with all four C-terminal cysteine residues replaced by alanine); experiment: BLI
[2] = target: T1, E. coli core RNA polymerase (core RNAP, α2ββ'ω) (E. coli, UniProt P0A7Z4 1-329; P0A8V2 1-1342; P0A8T7 1-1407; P0A800 1-91); experiment: BLI; conditions: both partners purified
T1 construct: RNA polymerase subunit alpha, E. coli; RNA polymerase subunit beta, E. coli; RNA polymerase subunit beta', E. coli; RNA polymerase subunit omega, E. coli; Commercial core enzyme (NEB); also called E. coli RNAP core enzyme; core E. coli RNAP; source: bought: NEB; copies: 2 + + +

| Molecule | Kd [1] | kon [1] | Kd [2] | koff [2] | kon [2] |
| --- | --- | --- | --- | --- | --- |
| E. coli core RNA polymerase (core RNAP, α2ββ'ω) (from UniProt P0A7Z4 1-329; P0A8V2 1-1342; P0A8T7 1-1407; P0A800 1-91) (complex) | 0.02 µM and 0.16 µM | 15000 M⁻¹ s⁻¹ and 9100 M⁻¹ s⁻¹ | – | – | – |
| B1 | – | – | 0.083 µM | 0.00045 s⁻¹ | 5400 M⁻¹ s⁻¹ |
